We go through two molecules from article PMC12141631.

Substitutions are numbered along the chain they refer to. Where two headings read alike, the source gives them in different places.

Holding throughout (test): cryo-EM structure
Assay [1] has as its target human glycine receptor β subunit, βem construct (human).
The target is the same in assay [2]. This is another data set of the same source.
Assay [3] has the same target. This is another data set of the same source.

B1: human glycine receptor α3 subunit, α3em construct (receptor)
chain: ARSRSAPMSPSDFLDKLMGRTSGYDARIRPNFKGPPVNVTCNIFINSFGSIAETTMDYRVNIFLRQKWNDPRLAYSEYPDDSLDLDPSMLDSIWKPDLFFANEKGANFHEVTTDNKLLRIFKNGNVLYSIRLTLTLSCPMDLKNFPMDVQTCIMQLESFGYTMNDLIFEWQDEAPVQVAEGLTLPQFLLKEEKDLRYCTKHYNTGKFTCIEVRFHLERQMGYYLIQMYIPSLLIVILSWVSFWINMDAAPARVALGITTVLTMTTQSSGSRASLPKVSYVKAIDIWMAVCLLFVFSALLEYAAVNFVSRQHKELLRFRRKRKNKTEAFDMDDEVRESRFSFTAYGMGPCLQAKDGMTPKGPNHPVQVMPKSPDEMRKVFIDRAKKIDTISRACFPLAFLIFNIFYWVIYKILRHEDIHQQQD
Turning to B1, the stoichiometry N in assay [1] and in assay [2] was 4 α3 per β throughout.

B2: human glycine receptor α3 subunit, α3S346Eem construct (phosphorylation mimetic) (receptor)
chain: B1 chain with S337E
Regarding B2, the stoichiometry N in assay [1] and in assay [3] was 4 α3 per β in each case.
